The results in this text go back to paper PMC12412652.

Assay [1] addresses T1, MBP-BAK 16-186, biotinylated (Avi tag, 6-histidine tag) (human), Q16611.
T1 chain: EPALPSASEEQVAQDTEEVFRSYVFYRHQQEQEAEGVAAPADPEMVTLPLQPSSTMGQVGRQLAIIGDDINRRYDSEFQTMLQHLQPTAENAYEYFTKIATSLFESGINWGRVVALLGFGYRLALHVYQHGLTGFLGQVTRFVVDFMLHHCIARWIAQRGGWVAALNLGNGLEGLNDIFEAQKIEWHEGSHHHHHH
Kind of assay: BLI; Octet RED96; biotinylated BCL-2 family proteins (25 nM) immobilised on streptavidin biosensors, designed protein in solution; 10 mM Hepes pH 7.4, 150 mM NaCl, 3 mM EDTA, 0.05% surfactant P20, 0.5% nonfat dry milk; titrations in triplicate, 1:1 binding model.

The target in assay [2] is MBP-BAX 1-166 C62S C126S, biotinylated (Avi tag, 6-histidine tag) (human), Q07812. The assay is described as above.
Sequence of MBP-BAX 1-166 C62S C126S, biotinylated (Avi tag, 6-histidine tag) (human), Q07812 (Q07812 1-166 C62S/C126S): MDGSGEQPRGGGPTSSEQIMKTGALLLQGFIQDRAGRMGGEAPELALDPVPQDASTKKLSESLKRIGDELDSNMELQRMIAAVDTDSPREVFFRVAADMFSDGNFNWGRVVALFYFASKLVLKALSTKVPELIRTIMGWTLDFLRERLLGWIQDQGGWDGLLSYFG

Turning to SESQEDIIRNIARHLAQVGDSMDRSIPPGLVNGL (domain or fragment, modifications not checked) [MBP-fused BH3 peptide from BID], the figures for the Kd in assay [1] and in assay [2] were greater than 4000 nM and 464 nM, respectively.

As usually defined, the Kd is a measure of binding affinity in units of concentration. Read a high Kd as lower affinity.
